Results taken from the supplement of paper PMC9942255.
“And” between values parts separate entries of the source, which are not always exact repeats. Identical values can stand only once.

Test system: Bacillus subtilis DB104 (SP-AmyQ fusion secretion)
Experiment: AmyQ secretion efficiency, weighted average sort bin (1 = best secretion, 10 = worst) (bin number (weighted average, 1-10)); higher = lower secretion efficiency
Summary of the method: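 Designed signal peptides were fused to mature AmyQ and expressed from the amyE locus in B. subtilis DB104, and this library was loaded at about 0.3 cells per ~65 nL alginate bead together with fluorescein-starch. After about 13 h of growth at room temperature and nile red staining, occupied beads were split into 10 equally populated bins by green/red fluorescence ratio using large-particle flow cytometry. Amplicons from every bin were Illumina-sequenced. The secretion score is the average bin number weighted by read frequency and normalised to beads per bin, excluding low-abundance sequences.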

Row | Sequence | AmyQ secretion efficiency
1 | MGLGKKLSVAVAASFMSLSISLPGVQWAEG | 3.19
2 | MGLGKKLSVAVAASFMSLSISLPGVQYAEG | 4.06
3 | MGLGKKLSVAVAASFMSLSISLPGWQAAEG | 5.06
4 | MGLGKKLSVAVAASFMSLSISLPVQAAEG | 1.35
5 | MGLGKKLSVAVAASFMSLSISLRKKVQAAEG | 8.03
6 | MGLGKKLSVAVAASFMSLSISLSPGVQAAEG | 1.19
7 | MGLGKKLSVAVAASFMSLSISLVSVQAAEG | 1.37
8 | MGLGKKLSVAVAASFMSLSPGVQAAEG | 1.73
9 | MGLGKKLSVAVAASFPGVQAAEG | 7.32
10 | MGLGKKNLNTMFLSVAVAASFMSLSISLPGVQAAEG | 2.66
11 | MGLGLLLSVAVAASFMSLSISLPGVQAAEG | 2.94
12 | MGLGTTFLSVAVAASFMSLSISLPGVQAAEG | 2.45
13 | MGLKKRVSMFLVALTMCGGLFVTPAKAVKT | 3.29
14 | MGMKKKLRKKRASAALGLALVGGGTWAAFN | 5.51
15 | MGMKKKLSLGVASAAGGTWAAFN | 8.23
16 | MGMKKKLSLGVASAALGLALVGGGGWAAFN | 6.46
17 | MGMKKKLSLGVASAALGLALVGGGQWAAFN | 5.94
18 | MGMKKKLSLGVASAALGLALVGGGSWAAFN | 6.13
19 | MGMKKKLSLGVASAALGLALVGGGTWCAFN | 4.28
20 | MGMKKKLSLGVASAALGLALVGGGTWFAFN | 7.33
21 | MGMKKKLSLGVASAALGLALVGGGTWGAFN | 7.37

Row | Sequence | AmyQ secretion efficiency
22 | MGMKKKLSLGVASAALGLALVGGGTWKAFN | 5.21
23 | MGMKKKLSLGVASAALGLALVGGGTWNAFN | 6.68
24 | MGMKKKLSLGVASAALGLALVGGGWWAAFN | 7.18
25 | MGMKKKLSLGVASAALGLALVGKKRTWAAFN | 8.1
26 | MGMKKKLSLGVASAALGLALVGRRKRKKTWAAFN | 6.59
27 | MGMKKKSRTGVASAALGLALVGGGTWAAFN | 5.34
28 | MGMKKKYTQGSRYRALGLALVGGGTWAAFN | 7.3
29 | MGMKRVITCVMAASLTLGSLLPAGYATAKED | 6.01
30 | MGMLFKIIGWILLLCIIPLFAFTVIASGKEV | 2.66
31 | MGMTSNLSLGVASAALGLALVGGGTWAAFN | 8.22
32 | MGQGKGSVFLILLLMLTLVVAPKEKAEAASS | 1.82
33 | MGRFLIGAGVAAVILSGWFIADHQTHSQEM | 6.17
34 | MGRFSTAYLLLGILCSAAVFLIGAPSRALGAEV | 2.59
35 | MGRIKTKITILLVLLLLLAGGYMYIN | 5.89 and 6.33 and 5.86
36 | MGRIKTKITILLVLLLLLAGGYTYIN | 5.32
37 | MGRIKTKITILLVLLLLLAGGYWYIN | 6.88
38 | MGRIKTKITILLVLLLLLAGPYMYIN | 7.19
39 | MGRIKTKITILLVLLLLLAGTYMYIN | 6.42
40 | MGSGTIWTIILGALLVCCIAVAYTLTKSQAGASSS | 7.61
41 | MGSGTSMLFSTLALAAGMTAAAAGGAGTIHAQQP | 2.01
42 | MGSLTKTSLLLAGLCTAAQMVFVTHASAEES | 4.02

Row | Sequence | AmyQ secretion efficiency
43 | MGSRTIWTIILGALLVCCIAVAYTLTKSQAGASSS | 5.01
44 | MGSSILLSSLAISALSLGLLVSAPTASFAAES | 3.62
45 | MGSSLAAGLTASAIVGTTLVVTPAEAATI | 4.99
46 | MGSTGSIMFACLILFSFTITTFINTETISAFSN | 4.71
47 | MGSTSFILWISLLFALTLIFTMAFSNMSAQAAGK | 6.79
48 | MGSTWSLIVCLTALLSVLLVAGSVPFHAEAKKP | 4.11
49 | MGTFSTASILLLGILCSAAVFLIGAPSRALGAEV | 2.99
50 | MGTLTTLTSLLLAGLCTAAQMVFVTHASAEES | 3.24
51 | MGTTIIILLLAVIIAAAAAGVAFYV | 7.47
52 | MGTTIVAGLAVSAVVGSSMAAAPAEAKTI | 6.13
53 | MHLIRAAGAVCLARFNEDQHQAEGENT | 8.19
54 | MHLIRAAGAVCLAVVLIAGCAFNEDQHQAEGENT | 5.56
55 | MHLIRAAGAVCLAVVLIAGCRDEEDEHQAEGENT | 4.66
56 | MHLIRAAGAVCLAVVLIAGCREAEGENT | 4.69
57 | MHLIRAAGAVCLAVVLIAGCRFGSIIVSAEGENT | 5.81
58 | MHLIRAAGAVCLAVVLIAGCRFIIVAIGAEGENT | 6.53
59 | MHLIRAAGAVCLAVVLIAGCRFNEDQAEGENT | 5.78
60 | MHLIRAAGAVCLAVVLIAGCRFNEDQHQAEDENT | 5.99
61 | MHLIRAAGAVCLAVVLIAGCRFNEDQHQAEEENT | 4.77
62 | MHLIRAAGAVCLAVVLIAGCRFNEDQHQAEGDED | 6.29
